Measured values taken from publication doi:10.1101/2024.09.19.613822.

Target: His-tagged proaerolysin (Aeromonas hydrophila) (UniProt P09167)
Assay: SEC

Substance: His-tagged proaerolysin (from UniProt P09167 24-445) (natural protein)
- stoichiometry N: 2
